Results: US20240301052A1 (LANOVA MEDICINES DEVELOPMENT, published 2024)

Columns and labels:
human SLC34A2 [1] = target: T1, human SLC34A2 (human, UniProt O95436 1-690); assay: FACS, RMG-1 cells
T1 construct: whole, on cells; also called human solute carrier 34 A2; NaPi2b
T1 sequence (looked up): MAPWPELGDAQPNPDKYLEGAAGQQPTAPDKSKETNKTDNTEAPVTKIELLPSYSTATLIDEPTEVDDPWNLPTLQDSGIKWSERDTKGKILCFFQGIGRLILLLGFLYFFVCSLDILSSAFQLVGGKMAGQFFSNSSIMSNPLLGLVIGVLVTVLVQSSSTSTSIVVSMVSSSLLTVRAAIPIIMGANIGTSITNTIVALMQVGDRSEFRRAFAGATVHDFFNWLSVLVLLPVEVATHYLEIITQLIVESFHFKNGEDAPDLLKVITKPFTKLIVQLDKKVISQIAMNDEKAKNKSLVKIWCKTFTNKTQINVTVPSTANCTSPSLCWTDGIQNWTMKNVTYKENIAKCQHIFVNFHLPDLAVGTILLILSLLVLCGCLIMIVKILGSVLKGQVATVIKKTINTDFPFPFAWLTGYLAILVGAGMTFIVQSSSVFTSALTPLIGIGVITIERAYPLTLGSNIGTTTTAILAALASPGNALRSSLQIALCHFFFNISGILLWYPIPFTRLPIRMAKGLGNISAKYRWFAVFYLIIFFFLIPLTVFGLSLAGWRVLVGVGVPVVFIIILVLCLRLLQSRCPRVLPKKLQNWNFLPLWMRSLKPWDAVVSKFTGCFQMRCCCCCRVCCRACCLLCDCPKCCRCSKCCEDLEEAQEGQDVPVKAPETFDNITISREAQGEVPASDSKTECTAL
Description: Based on the foregoing cell-based binding results, some of the chimeric antibodies were selected for further cell based binding on human SLC34A2 expressing cells using flow cytometry. RMG-1 cells were incubated with the selected chimeric antibodies (from 200 nM, 4 folds dilution, 8 points). After incubation at 4° C. for 60 minutes, the cells were washed with FACS buffer twice, then stained with fluorescent conjugated secondary antibody at 4° C. for 30 minutes. Afterwards the cells were washed twice and analyzed by flow cytometry.

human SLC34A2 [2] = target: T1, human SLC34A2; assay: FACS, OVCAR3 cells
Description: In this example, cell based binding of chimeric antibodies (hIgG1) prepared from the murine antibodies on human SLC34A2 expressing cells were assessed using flow cytometry.
(§1) Briefly, OVCAR3 cells or HEK293 cells expressing human SLC34A2 were incubated with chimeric antibodies (from 200 nM, 4 folds dilution, 8 points). After incubation at 4° C. for 60 minutes, the cells were washed with FACS buffer twice, then stained with fluorescent conjugated secondary antibody at 4° C. for 30 minutes. After that the cells were washed twice and analyzed by flow cytometry.

human SLC34A2 [3] = target: T1, human SLC34A2; assay: cell-based or functional assay
human SLC34A2 [4] = target: T1, human SLC34A2; assay: cell-based or functional assay; remark: listed apart in the source
human SLC34A2 [5] = target: T1, human SLC34A2; assay: FACS, HEK293/human SLC34A2 cells
Description: as §1

Rhesus SLC34A2 = target: T2, Rhesus SLC34A2 (Rhesus, UniProt F7HDA3 1-690); assay: FACS, HEK293/Rhesus SLC34A2 cells
T2 construct: whole, on cells
T2 sequence: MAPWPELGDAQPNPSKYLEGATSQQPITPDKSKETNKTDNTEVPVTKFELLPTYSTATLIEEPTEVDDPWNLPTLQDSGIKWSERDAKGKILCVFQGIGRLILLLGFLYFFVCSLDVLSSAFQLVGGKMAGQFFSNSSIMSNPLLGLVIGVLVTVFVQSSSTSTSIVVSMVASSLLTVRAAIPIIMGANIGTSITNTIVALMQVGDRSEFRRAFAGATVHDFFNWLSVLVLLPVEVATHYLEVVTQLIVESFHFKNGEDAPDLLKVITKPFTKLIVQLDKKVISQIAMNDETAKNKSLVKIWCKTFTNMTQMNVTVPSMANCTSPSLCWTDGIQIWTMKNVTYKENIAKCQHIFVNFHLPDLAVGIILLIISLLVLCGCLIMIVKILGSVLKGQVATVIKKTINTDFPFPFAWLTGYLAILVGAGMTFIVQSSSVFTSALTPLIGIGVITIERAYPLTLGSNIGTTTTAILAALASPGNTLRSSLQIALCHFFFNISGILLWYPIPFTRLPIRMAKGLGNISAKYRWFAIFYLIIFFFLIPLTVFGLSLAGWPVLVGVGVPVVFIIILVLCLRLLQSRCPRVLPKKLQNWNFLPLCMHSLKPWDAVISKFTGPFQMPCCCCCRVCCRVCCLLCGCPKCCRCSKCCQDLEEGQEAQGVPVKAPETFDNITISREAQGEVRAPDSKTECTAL
Description: as §1, with “the Rhesus SLC34A2 expressing HEK293 engineering” for “OVCAR3”, “(HEK293/Rhesus_SLC34A2)” for “or HEK293 cells expressing human SLC34A2”, “Abs” for “antibodies”

Cynomolgus SLC34A2 = target: T3, Cynomolgus SLC34A2 (Cynomolgus, UniProt A0A2K5UHY1 1-690); assay: FACS, cells expressing Cynomolgus SLC34A2
T3 construct: whole, on cells; also called Cyno SLC34A2
T3 sequence: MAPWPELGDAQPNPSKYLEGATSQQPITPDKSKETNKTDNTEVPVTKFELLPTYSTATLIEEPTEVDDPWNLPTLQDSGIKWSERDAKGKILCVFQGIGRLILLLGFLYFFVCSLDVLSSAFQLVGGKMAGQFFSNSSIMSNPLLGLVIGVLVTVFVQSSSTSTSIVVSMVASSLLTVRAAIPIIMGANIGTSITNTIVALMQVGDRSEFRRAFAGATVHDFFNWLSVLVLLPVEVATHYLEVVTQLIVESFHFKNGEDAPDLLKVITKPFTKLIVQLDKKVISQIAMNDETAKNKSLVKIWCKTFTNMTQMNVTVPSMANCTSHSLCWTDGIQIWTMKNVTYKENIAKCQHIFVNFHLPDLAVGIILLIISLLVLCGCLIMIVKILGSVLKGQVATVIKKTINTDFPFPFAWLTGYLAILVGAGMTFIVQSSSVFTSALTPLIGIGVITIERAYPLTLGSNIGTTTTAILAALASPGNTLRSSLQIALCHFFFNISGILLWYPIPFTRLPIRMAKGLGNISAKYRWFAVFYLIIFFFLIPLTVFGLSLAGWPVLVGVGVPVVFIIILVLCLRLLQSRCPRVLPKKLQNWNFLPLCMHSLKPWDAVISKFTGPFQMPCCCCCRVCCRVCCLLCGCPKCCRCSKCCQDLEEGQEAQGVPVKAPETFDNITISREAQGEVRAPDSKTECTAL

human SLC34A2 [6] = target: T1, human SLC34A2; assay: FACS, OVCAR3 cells; remark: listed apart in the source

Binder | EC50 (human SLC34A2 [1]) [nM] | Top (MFI) (human SLC34A2 [1]) | EC50 (human SLC34A2 [2]) [nM] | Top (MFI) (human SLC34A2 [2]) | ADCC reporter EC50 (human SLC34A2 [3]) [nM] | ADCC reporter Top (MFI) (human SLC34A2 [3]) | cytotoxicity EC50 (human SLC34A2 [4]) [nM] | cytotoxicity Inhibition % (human SLC34A2 [4]) [%] | EC50 (human SLC34A2 [5]) [nM] | Top (MFI) (human SLC34A2 [5]) | EC50 (Rhesus SLC34A2) [nM] | Top (MFI) (Rhesus SLC34A2) | EC50 (Cynomolgus SLC34A2) [nM] | Top (MFI) (Cynomolgus SLC34A2) | EC50 (human SLC34A2 [6]) [nM] | Top (MFI) (human SLC34A2 [6])
xi84F2D10 hIgG1 (antibody, V domains shown, chimeric, hIgG1) VH: QVQLQQPGAVLVKPGASVKMSCKASGYTFTSYNLHWVKQTPGQGLEWIGAIYPGNGDTSYIQKFKGKATLTADKSSSTAYMQLSSLTSEDSAVYYCARGKYGNYEGFAYWGQGTLVTVSA VL: DILLTQSPAILSVSPGERVSISCRASQSIGTSIYWYQQRRNGSPRLLIKFASESISGIPSRFSGSGSGTDFTLSINSVESEDIADYYCQQNNRWPFTFGSGTKLEIK | 4.33 | 8600 | 3.84 | 40500 | 2.5 | 409000 | 0.61 | 102 | 1.37 | 109000 | 46 | 8840 | 68.5 | 1280 |  | 
xi28G3C6B9 hIgG1 (antibody, V domains shown, chimeric, hIgG1) VH: QVQLQQPGAEVVKPGASVKMSCKASGYTFTSYIIHWVKQAPGQGLEWIGAIYPGNGDTSYSQRFKGKAKLTADKSSSTAYMQLNSLTSEDSVVYYCARGNNYGSPAWFGYWGQGTLVTVSA VL: DIVLTQSPVTLSVTPGDRVSLSCRASQSIGNFLYWYQQKSHESPRLLIKYASQSMSGIPSRFSGSGSGTDFTLSISRVETEDFGMYFCQQSNSWPVTFGAGTKLELK | 4.73 | 9420 | 4.27 | 43000 | 6.4 | 569000 | 0.36 | 86.4 | 1.88 | 107000 | 3.19 | 13400 | 2.81 | 3770 |  | 
xi18G1H4 hIgG1 (antibody, V domains shown, chimeric, hIgG1) VH: QVQLQQPGAELVKPGASVRMSCKASAYTFTTYNLHWVKQTPGQGLEWIGAISPGNGVTSYNQKFRGKATLTADKSSSTAYMQLSSLTSEDSAVYYCARGYGYSVGAMDYWGQGTSVTVSS VL: DIQMTQTTSSLSASLGDRVNISCSASQGIGNFLNWYQQKPDGTVKLLIYYTSSLHSGVPPRFSGSGSGTDYSLTISNLEPEDIATYYCQQYHKLPLTFGAGTKLELK | 7.91 | 9800 | 2.75 | 42500 | 2.2 | 228000 | 0.36 | 82.7 | 0.86 | 106000 | 2.9 | 14300 | 4.93 | 4090 |  | 
xi16E5D10 hIgG1 (antibody, V domains shown, chimeric, hIgG1) VH: QVQLQQPGAELVKPGASVMMSCKASGYTFSNHNLHWLKKTPGQGLDWIGAIYPGNGDTSYNQKFKGRATLTVDKSSNTAYMQFSSLTSEDSAVFYCARGKYGNGAMDYWGQGTAVTVSS VL: DIVMTQSHKFMSTSVGDRVSITCRASQDVGTAVVWYQQKLGQSPKLLFDWASSRHTGVPDRFTGSGSGTDFTLTITDVQSEDLADYFCQQYSRQPLTFGAGTKLELK | 3.76 | 9500 | 4.66 | 27600 | 2.1 | 238000 | 0.78 | 93.1 | 2.29 | 47500 | 2.72 | 14800 | 3.79 | 3730 |  | 
xi69B11D8 hIgG1 (antibody, V domains shown, chimeric, hIgG1) VH: EVQLQQSGPELVKPGAAVKISCKTSGYTFTDYTMHWVRQSHGKSLEWIGGIHPNNGGTGYNQKLRGKATLTVDKSSSTAYMELRSLTSDDSAVYYCARGRESDGWFTYWGQGTLVTFSA VL: DVHMTQTTSSLSASLGDRVTITCSASQGIGNSLNWYQQQPDGTVKLLIYYTSRLHSGVPSRFSGSGSGTDYSLTISNLEPEDLATYYCQQYSRFPPTFGGGTKLEIK | 1.7 | 9200 | 2.12 | 27700 | 2.7 | 216000 | 0.67 | 86.9 | 1.19 | 48000 | 1.68 | 11600 | 88.3 | 2570 |  | 
xi94B10A8 hIgG1 (antibody, V domains shown, chimeric, hIgG1) VH: QVQLQQTGAELVKPGASVKMSCKASGYTFTGYIIHWIKQRPGQGLEWIGAIYPGNGDTSYNQKIKGRATLTADKSSTTAYMQLSSLTSEDSAVYYCARGDYGNPAWFAYWGQGTLVTVSA VL: DVVLTQSPATLSVTPGDRVSLSCRASQSISNYLYWYQQKAHESPRLLIKFASQSISGIPSRFRGSGSGTDFTLSINSVETEDFGMYFCQQSNKWPLTFGAGTKLELK | 2.58 | 9370 | 1.57 | 39600 | 4 | 486000 | 0.7 | 97.5 | 1.17 | 91300 | 2.24 | 13700 | 5.47 | 3150 |  | 
63A11D5B4.p1.z16 hIgG1 (antibody, V domains shown, humanized hIgG1) VH: QVQLQQSGAEVVKPGASVKMSCKTSGYTFITYNMHWVKQAPGQGREWIGAIYPGSGDTSYNQKFKGRATLTADKSTSTAYMELSSLRSEDTAVYYCSISTIITTGAVDYWGQGTSVTVSS VL: DIVMTQSPSSLSTSVGDRVTITCKASQDVGTAVAWYQQKPGQSPKLLIYWTSTRHTGVPDRFTGSGSGTDFTLIIRSLQPEDVATYFCQQYSRIPLTFGSGTKVEIK |  |  |  |  |  |  |  |  |  |  |  |  |  |  | 11.4 | 29500
